Data on one molecule can be found in patent publication US9505841B2, “Use of an anti-Ang2 antibody” (Samsung Electronics Co., Ltd., priority 2013, dated 2016).

Data set [1] relates to mutant Ang2 protein. Description: Epitope ELISA with alanine-mutated Ang2 proteins. The format is binding, human. Particulars: A449 substituted with alanine. On the procedure:
To verify the epitope (or specific binding site) of the anti-Ang2 antibody prepared in Example 2, an ELISA was performed using a recombinant protein where a receptor binding domain (RBD) of Ang2 protein in the form of being tagged with Flag was mutated by artificial means.
Each well of a 96-well MaxiSorp™ flat-bottom plate (Nunc) was coated with 50 ul (microliter) of 1000 nM antibody. Then, the plate was washed five times with 0.05% (v/v) Tween-20-containing PBS (PBST) and blocked with 1% (v/v) BSA-containing PBS at a room temperature for 2 hours. 250 ng of each mutant Ang2 protein obtained by substituting S417, Q418, P419, N421, 1434, D448, A449, P452, Y460, N467, K468, or F469 residue of Ang2 protein tagged with a FLAG sequence (DYKDDDDK, Sigma) at its N-terminal with alanine was added to each well of the plate, which was then allowed to react at a room temperature for 2 hours. […]
Finally, 50 ul of TMB substrates (Cell signaling) was added to each well of the plate to induce color development at a room temperature for 3 min. and the reaction was ceased by the addition of 50 ul of Stop solution (Cell signaling) and then, OD450 values were measured on a plate reader (Molecular Devices). […]

Data set [2] relates to HUVEC monolayer. Description: In vitro vascular permeability assay (FITC-dextran). The conditions noted are these: 200 ng/ml Ang1 alone or 200 ng/ml Ang2 + 1 ug/ml 10D6. It counts as cell-based, human. On the procedure:
To see the cell permeability suppression effects of antibody 10D6, in vitro vascular permeability assay kit (Millipore) was employed. HUVEC (ATCC) cells (5×10^4) were added to a collagen-coated transwell and cultured for 2 days to prepare a confluent monolayer. It was treated with 200 ng/ml of Ang2 or 200 ng/ml of Ang1 (R&D systems) alone, or 200 ng/ml of Ang2 and 1 ug/ml of antibody 10D6, pre-incubated for 30 min. and then, treated with 100 ng/ml of LPS (Lipopolysaccharide; Sigma) or 100 ng/ml TNF-a (R&D systems) to induce the permeability of HUVEC monolayer. LPS or TNF-a weakens binding between HUVEC cells to form a gap therebetween, thereby increasing the migration of materials in the HUVEC monolayer. After 6-hour incubation for the LPS treatment group and 22-hour incubation for the TNF-a group, the upper chamber was treated with FITC-dextran (Millipore) and incubated for 18 min. The fluorescence of FITC-dextran migrated to the lower chamber was measured at 485/535 nm (Ex/Em) setting using an Envision 2104 multilabel Reader (Perkinelmer).

The subject of data set [3] is LLC tumor tissues. Description: H&E staining of necrotic region in LLC tumors. It counts as in vivo, mouse. The conditions noted are these: 10 mg/kg i.p., five administrations, compared to Fc- or 4H10-treated group. The protocol: To see the effects of the structurally and functionally normalized blood vessels in tumor by treatment of antibody 10D6 on the tumor tissues, referring to the method of Example 14, LLC tumor cells were subcutaneously injected into mice. When the size of tumors reached 50˜100 mm^3, anti-Ang2 antibody 10D6 was injected at the concentration of 10 mg/kg via an intraperitoneal injection three times a week and the size of the tumors was measured. After administering the antibody five-times, the tumor sections were stained with H&E according to standard protocol, and then, the Eosin+ cell necrotic region in tumor tissues was confirmed. For comparison, the same experiment was performed to a control group treated with Fc of IgG1 and a comparative group treated with antibody 4H10 (refer to Example 3).

Data set [4] concerns metastasis of lung cancer cells to near lymph nodes. Kind of data set: LLC tumor metastasis to inguinal lymph nodes. The format is in vivo, mouse. Particulars: 10 mg/kg i.p., five administrations, compared to Fc- or 4H10-treated group. The protocol:
To see the degree of tumor metastasis to near lymph nodes when treated with antibody 10D6, referring to the method of Example 14, LLC tumor cells were subcutaneously injected into mice. When the size of tumors reached 50˜100 mm^3, anti-Ang2 antibody 10D6 was injected at the concentration of 10 mg/kg via an intraperitoneal injection three times a week and the size of the tumors was measured. After administering the antibody five-times, inguinal lymph nodes were separated, and the obtained tissue sections were immunostained using rabbit anti-LYVE-1 antibody (1:200, Millipore) and mouse pan-Cytokeratin antibody (1;200, Abcam).
For comparison, the same experiment was performed to a control group treated with Fc of IgG1 and a comparative group treated with antibody 4H10 (refer to Example 3).

Data set [5] relates to blood vessels of normal mice. Description: Vascular toxicity in normal mice. The format is in vivo, mouse. The conditions noted are these: C57BL/6, 5 mg/kg i.p. solely or with 20 ug Ang2, every three days, 6 times. The protocol:
The vascular toxicity of antibody 10D6 was tested.
In particular, 5 mg/kg of antibody 10D6 was administered to normal 6-week old C57BL/6 mice (Jackson Laboratory) solely or combined with 20 ug of Ang2 via an intraperitoneal injection every three days a total of 6 times, and then, the weight of the mice was measured. After 20 days, various tissues including thyroid, parathyroid, and adrenal gland were removed from the mice, and frozen sections were obtained therefrom. The frozen sections were immunostained using hamster anti-CD31 antibody (1:200, Millipore), and the changes were observed. A group administered with 20 ug of Ang2 solely was used for comparison.

B1: 10D6: mouse anti-Ang2 monoclonal antibody from hybridoma KCLRF-BP-00295; heavy chain variable region SEQ ID NO: 7, light chain variable region SEQ ID NO: 9 (antibody, V domains shown)
VH: DVQLQESGPGLVKPSQSLSLTCTVTGYSITSDYAWNWIRQFPGNKLEWMGYINYSGNTDYNPSLKSRSSITRDTSKNQFFLQLNSVTTGDTATYYCARGNFEGAMDYWGQGTSVTVSS
VL: SIVMTQTPKFLLVSAGDRVTITCKASQSVSNDVAWYQQKPGQSPKLLIYYASNRYPGVPDRFTGSGYGTDFTFTISTVQAEDLAVYFCQQDYSSPWTFGGGTKLEIK
modifications: Synthetic (Heavy chain variable region of an anti-Ang2 antibody); Synthetic (Light chain variable region of anti-Ang2 antibody)
As for B1, in data set [1], the “binding affinity (%) with mutant Ang2 against the binding affinity with the native Ang2, 449” value is listed as 97.86%. For the same molecule, the “vascular permeability increased by LPS” value in data set [2] (100 ng/ml LPS, 6 hour) is on record as “decreased to the control level”. Also, the “vascular permeability increased by TNF-a” value in data set [2] (100 ng/ml TNF-a, 22 hour) is “decreased to the control level”. Further, in data set [3], the “cell necrotic region in tumor tissues” value was “smaller”. In data set [4], the “number of metastatic lung cancer in lymph nodes” value is “decreased” and the “size of lymph nodes” value is reported as “decreased”. Moreover, the “weight of normal mice” value in data set [5] is “neither abnormal weight loss/gain”. The “vascular toxicity (morphology of blood vessels, CD31 staining)” value in data set [5] (after 20 days) is reported as “no vascular toxicity”.
